# Measured values taken from PMC7920261.
# Key:
# [1] = biological target: SARS-CoV-2 spike receptor-binding domain (RBD) (SARS-CoV-2) (UniProt P0DTC2); test: BLI
# [2] = biological target: SARS-CoV-2 spike receptor-binding domain (RBD) (SARS-CoV-2) (UniProt P0DTC2); test: ELISA
# [3] = biological target: SARS-CoV-1 spike receptor-binding domain (RBD) (SARS-CoV-1); test: BLI
Substance,Kd [1] [µM],IC50 [2] [µM],Kd [3] [µM]
"CTC-445, recombinant (designed binder)",0.357,1.7,
CTC-445.2d (designed binder),0.0035,0.0007,0.587
"CTC-445.2, recombinant (designed binder)",0.021,0.0104,7.1
